Data taken from patent US20260042806A1 (OXFORD NANOPORE TECHNOLOGIES, published 2026).
No end group written: not given here. *: point of attachment. 4‑(fluorosulfonyl)phenylacetyl = O=C(Cc1ccc(S(=O)(=O)F)cc1)*; Benzoyl(3-SO2F) = O=C(c1cccc(S(=O)(=O)F)c1)*; Benzoyl(4-SO2F) = O=C(c1ccc(S(=O)(=O)F)cc1)*

T1: CsgG (preformed nonameric CsgG pore complexes of Example 2) (Escherichia coli, UniProt P0AEA2 16-277)
T1 construct: Tyr196 fits that numbering; also called CsgG nonameric channel
T1 sequence: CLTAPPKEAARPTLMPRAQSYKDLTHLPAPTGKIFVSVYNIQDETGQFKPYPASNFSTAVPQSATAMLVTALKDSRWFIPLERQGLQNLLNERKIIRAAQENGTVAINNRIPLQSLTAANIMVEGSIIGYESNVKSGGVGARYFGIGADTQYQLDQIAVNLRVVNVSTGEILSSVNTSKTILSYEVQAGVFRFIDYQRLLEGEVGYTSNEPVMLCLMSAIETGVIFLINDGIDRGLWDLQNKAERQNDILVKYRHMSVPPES

T2: CsgG-F56Q pore (ONLP20134) (Escherichia coli, UniProt P0AEA2 16-277)
T2 construct: Oligomeric pore purified from E. coli; also called CsgG-WT-F56Q; CsgG-only pore control
T2 sequence: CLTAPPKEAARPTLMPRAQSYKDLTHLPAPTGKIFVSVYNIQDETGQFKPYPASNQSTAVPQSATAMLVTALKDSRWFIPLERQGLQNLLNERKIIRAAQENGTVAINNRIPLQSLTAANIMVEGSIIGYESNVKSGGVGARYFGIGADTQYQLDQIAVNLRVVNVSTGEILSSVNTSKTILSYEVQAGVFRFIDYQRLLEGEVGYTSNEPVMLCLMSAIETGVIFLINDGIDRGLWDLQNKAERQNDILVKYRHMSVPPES


Assays:
[1] = target: T1, CsgG (preformed nonameric CsgG pore …); experiment: insertion of complexes into bilayers; told of the covalent SuTide complexes as a group
[2] = target: T1, CsgG (preformed nonameric CsgG pore …); experiment: SDS-PAGE time course of the reaction with CsgG
[3] = target: T2, CsgG-F56Q pore (ONLP20134); experiment: single-channel current traces, MinION flow cell, -180 mV

Binder	fold increase in the proportion of bilayer embedded stable complexes over the non-covalent complex [1]	first order rate constant k1 of covalent reaction [2]	halftime (t1/2) of covalent complex formation [2]	binding result [3]
GTMTFQFRNPNFGGNPNNGAFLLNSAQAQK(4‑(fluorosulfonyl)phenylacetyl)-NH2 (N-terminus assumed; SMILES CSCC[C@H](NC(=O)[C@@H](NC(=O)CN)[C@@H](C)O)C(=O)N[C@H](C(=O)N[C@@H](Cc1ccccc1)C(=O)N[C@@H](CCC(N)=O)C(=O)N[C@@H](Cc1ccccc1)C(=O)N[C@@H](CCCNC(=N)N)C(=O)N[C@@H](CC(N)=O)C(=O)N1CCC[C@H]1C(=O)N[C@@H](CC(N)=O)C(=O)N[C@@H](Cc1ccccc1)C(=O)NCC(=O)NCC(=O)N[C@@H](CC(N)=O)C(=O)N1CCC[C@H]1C(=O)N[C@@H](CC(N)=O)C(=O)N[C@@H](CC(N)=O)C(=O)NCC(=O)N[C@@H](C)C(=O)N[C@@H](Cc1ccccc1)C(=O)N[C@@H](CC(C)C)C(=O)N[C@@H](CC(C)C)C(=O)N[C@@H](CC(N)=O)C(=O)N[C@@H](CO)C(=O)N[C@@H](C)C(=O)N[C@@H](CCC(N)=O)C(=O)N[C@@H](C)C(=O)N[C@@H](CCC(N)=O)C(=O)N[C@@H](CCCCNC(=O)Cc1ccc(S(=O)(=O)F)cc1)C(N)=O)[C@@H](C)O, Synthetic peptide: WT CsgF(1-29) with a modified Lys at position 30; also called 4-CH2SO2F-CsgF; CsgF-WT-K30-CH2PH-p-SO2F-del(S31-F119)) [CsgF-K30-CH2-PH-P-SO2F-del(S31-F119)]	2 fold	~0.17 h⁻¹	4 h	–
GTMTFQFRNPNFGGNPNNGAFLLNSAQAQK(Benzoyl(4-SO2F))-NH2 (N-terminus assumed; SMILES CSCC[C@H](NC(=O)[C@@H](NC(=O)CN)[C@@H](C)O)C(=O)N[C@H](C(=O)N[C@@H](Cc1ccccc1)C(=O)N[C@@H](CCC(N)=O)C(=O)N[C@@H](Cc1ccccc1)C(=O)N[C@@H](CCCNC(=N)N)C(=O)N[C@@H](CC(N)=O)C(=O)N1CCC[C@H]1C(=O)N[C@@H](CC(N)=O)C(=O)N[C@@H](Cc1ccccc1)C(=O)NCC(=O)NCC(=O)N[C@@H](CC(N)=O)C(=O)N1CCC[C@H]1C(=O)N[C@@H](CC(N)=O)C(=O)N[C@@H](CC(N)=O)C(=O)NCC(=O)N[C@@H](C)C(=O)N[C@@H](Cc1ccccc1)C(=O)N[C@@H](CC(C)C)C(=O)N[C@@H](CC(C)C)C(=O)N[C@@H](CC(N)=O)C(=O)N[C@@H](CO)C(=O)N[C@@H](C)C(=O)N[C@@H](CCC(N)=O)C(=O)N[C@@H](C)C(=O)N[C@@H](CCC(N)=O)C(=O)N[C@@H](CCCCNC(=O)c1ccc(S(=O)(=O)F)cc1)C(N)=O)[C@@H](C)O, Synthetic peptide: WT CsgF(1-29) with a modified Lys at position 30; also called 4-SO2F-CsgF; CsgF-WT-K30-PARA-SO2F-del(S31-F119)) [CsgF-K30-PARA-SO2F-del(S31-F119)]	2 fold	~0.46 h⁻¹	1.5 h	–
GTMTFQFRNPNFGGNPNNGAFLLNSAQAQK(Benzoyl(3-SO2F))-NH2 (N-terminus assumed; SMILES CSCC[C@H](NC(=O)[C@@H](NC(=O)CN)[C@@H](C)O)C(=O)N[C@H](C(=O)N[C@@H](Cc1ccccc1)C(=O)N[C@@H](CCC(N)=O)C(=O)N[C@@H](Cc1ccccc1)C(=O)N[C@@H](CCCNC(=N)N)C(=O)N[C@@H](CC(N)=O)C(=O)N1CCC[C@H]1C(=O)N[C@@H](CC(N)=O)C(=O)N[C@@H](Cc1ccccc1)C(=O)NCC(=O)NCC(=O)N[C@@H](CC(N)=O)C(=O)N1CCC[C@H]1C(=O)N[C@@H](CC(N)=O)C(=O)N[C@@H](CC(N)=O)C(=O)NCC(=O)N[C@@H](C)C(=O)N[C@@H](Cc1ccccc1)C(=O)N[C@@H](CC(C)C)C(=O)N[C@@H](CC(C)C)C(=O)N[C@@H](CC(N)=O)C(=O)N[C@@H](CO)C(=O)N[C@@H](C)C(=O)N[C@@H](CCC(N)=O)C(=O)N[C@@H](C)C(=O)N[C@@H](CCC(N)=O)C(=O)N[C@@H](CCCCNC(=O)c1cccc(S(=O)(=O)F)c1)C(N)=O)[C@@H](C)O, Synthetic peptide: WT CsgF(1-29) with a modified Lys at position 30; also called 3-SO2F-CsgF; CsgF-WT-K30-META-SO2F-del(S31-F119)) [CsgF-K30-META-SO2F-del(S31-F119)]	2 fold	~1 h⁻¹	0.66 h	–
GTMTFQFRNPNFGGNPNNGAFLLNSAQAQN (Chemically synthesised peptide; In complex ONLP20783 with CsgG-F56Q; also called CsgF-WT-del(S31-F119); del(S31-F119) CsgF peptide) [CsgF-del(S31-F119)]	–	–	–	binds
